Where a chain is given by its changes, count along the chain named.
Columns and labels:
guanine-riboswitch = details: previous in-line measurements; cited from earlier work
[1] = Constant-force / force-jump assay of the full-length riboswitch RNA; type: physicochemical
Text: Moreover, as the successive traces were not reproducible, the anti-terminator conformation could not be assigned to the transitions. […] The function of the random structures can be presumed to destabilize the terminator hairpin and turn “ON” the gene expression. The un-bound trajectories are referred to as the “non-terminator” conformations to distinguish from the traditionally defined anti-terminator conformation. […] To assess the mode of allosteric modulation (tilt-equilibrium or induced-fit), the mechanical unfolding assay was performed in the presence of guanine salts ranging from 1 nM to 1 μM. […] Had this been the case, a gradual shift would have been observed in the equilibrium toward the terminator conformation according to the tilt-equilibrium model. […] Thus, at 16 pN, the terminator fluctuates between the open and the closed states, observed as Y*↔Y and Z*↔Z in FIG. 23A. […] The Keq˜0.1
[formula] implied that the hairpin preferred the open state (90%) at 16 pN (the Keq˜1 at 15.6 pN). The expression platform dynamics and the unfolding scheme are shown in FIGS. 27A-B. That the bi-stabilities are due to the terminator was further confirmed by subjecting the FL-mutant to similar cycles (FIG. 23B). […] The findings thus underscore that only the guanine induces a terminator conformation to the expression platform. Transition Y→Z* (ΔX=14±2.5 nm) indicated a complete unfolding of the aptamer (FIGS. 27A-B).
In a constant-force (CF) experiment, the RNA is held at a preset force through feedback control. The preset force typically fluctuated around the mean with a standard deviation ±0.15 pN. In this mode, data is recorded from 4-40 kHz to capture the fast intermediates. The plots are shown as extension vs. time (as in FIG. 6A). In force-jump (FJ) assay, the force is suddenly jumped from one force to another, and then held constant thereafter, as shown in FIGS. 23A-B.

[2] = Force-ramp mechanical assay of the full-length xpt leader mRNA; type: physicochemical
Text: A dual-beam high-resolution optical tweezers was built that can detect short-lived fluctuations at sub-milliseconds (<0.25 msec) time scale at a single base pair level, with high precision and accuracy. This instrument was used to investigate the conformational dynamics of the full-length (FL) guanine-responsive riboswitch (guanine-riboswitch) and its 69-nt aptamer domain present in the 5′-UTR of an xpt-pbuX operon in B. subtilis. It has been shown that the xpt leader mRNA selectively downregulates the gene expression by transcription termination in the presence of guanine (FIG. 17B). The FL xpt mRNA was subjected to mechanical assays in order to identify the terminator and an anti-terminator conformation. […] The unfolding trajectory (red curve) indicated the melting of the 35-nt terminator hairpin at 16.1±0.5 pN (n=1200 traces) with a transition distance, ΔXt˜15±3 nm. A second transition at 17.9±0.9 pN with a distance, ΔXa˜25-30 nm indicated the unfolding of the 69-nt aptamer. […] The terminator mutant (FL-mutant, FIGS. 17D-E) abolished the 16.0 pN transition, thus supporting the structural assignment.
The forces on the bead were recorded at an acquisition rate of 44 kHz. Data was collected from the stereo phone jacks on the ADC boards of the Tweezers instrument and sent to the host computer audio input for analysis by SignalScope program (Faber Acoustical, LLC). As shown in the plot, power spectral density is fitted with the Lorentzian fit to yield the corner frequency (fc) that was used to calculate the trap stiffness. This setup was used to perform three different mechanical reactions: force-ramp (FR), constant-force (CF) and force-jump (FJ) under a controlled force. In the force-ramp (FR) experiment, the trap was moved at 200 nm/s, which corresponded to a loading rate 7-8 pN/s. […] The force-ramp data is plotted as force vs. extension curves (FEC).

Question: With `Nc1nc(N)c2[nH]cnc2n1` [DAP, 2,6-diaminopurine] as the molecule, how does the Kd (guanine-riboswitch) read?
Answer: The Kd was about 10 µM.

B1: FL xpt mRNA: full-length wild-type guanine riboswitch sequence comprising the aptamer domain and expression platform (SEQ ID NO: 12) (nucleic acid)
chain: AAUAUAAUAGGAACACUCAUAUAAUCGCGUGGAUAUGGCACGCAAGUUUCUACCGGGCACCGUAAAUGUCCGACUAUGGGUGAGCAAUGGAACCGCACGUGUACGGUUUUUUGUGAUAUCAGCAUUGCUUGCUCUUUAUUUGAGCGGGCAAUGCUUUUUUUAUUCUCAUAACGGAGGUAGACAGGAUG
modifications: aptamer_domain (14)..(82); expression_platform (83)..(188)
Question: Which “Keq of terminator hairpin” value ([1]; 15.6 pN, +G) does the source give for B1 here?
Answer: Its value is about 1.

Question: What about the “Keq of terminator hairpin” value ([1]; 16 pN, +G) of the same molecule?
Answer: The value was about 0.1.

Question: What about the “Terminator hairpin in the open state” value ([1]; 16 pN, +G) of the same molecule?
Answer: Its value is 90%.

Question: And the “ΔX of transition Y→Z* (complete unfolding of the aptamer)” value ([1]; 16 pN, +G)?
Answer: Its value is 14±2.5 nm.

Question: What about the “Change in extension of terminator open/closed bi-stabilities (Y*↔Y, Z*↔Z)” value ([1]; 16 pN, +G (FIG. 23A: 200 nM guanine)) of the same molecule?
Answer: The value was 15±1.7 nm.

Question: What about the “Force of second transition (unfolding of the 69-nt aptamer)” value ([2]; 1 μM guanine) of the same molecule?
Answer: Its value is 17.9±0.9 pN.

Question: What about the “Transition distance ΔXa (aptamer)” value ([2]; 1 μM guanine) of the same molecule?
Answer: Its value is 25-30 nm.

Question: And the “Transition distance ΔXt (terminator)” value ([2]; 1 μM guanine)?
Answer: The value was about 15±3 nm.

Question: What about the “Melting force of the 35-nt terminator hairpin” value ([2]; 1 μM guanine, n=1200 traces) of the same molecule?
Answer: The value was 16.1±0.5 pN.

B2: FL-mutant: full-length mutant guanine riboswitch sequence comprising the aptamer domain and expression platform (SEQ ID NO: 13) (nucleic acid)
chain: B1 chain with G148C, C149G, G153C, C154G
modifications: aptamer_domain (14)..(82); expression_platform (83)..(188)
Question: What does the source list for B2?
Answer: Terminator hopping (in words) ([1]; 75 traces, 200 nM guanine): without exhibiting a terminator hopping; 16.0 pN terminator transition (in words) ([2]; force-extension curve): abolished
